# Where two headings read alike, the source gives them in different places.
# How the values were obtained:
# [1] = biological target: full length ASPP2, V5-tagged (transfected) (Homo sapiens (Human)) (UniProt Q13625); test: cell-based or functional assay
# [2] = biological target: T1, full length ASPP1, V5-tagged (transfected) (Homo sapiens (Human)) (UniProt Q96KQ4); test: cell-based or functional assay
# T1 sequence: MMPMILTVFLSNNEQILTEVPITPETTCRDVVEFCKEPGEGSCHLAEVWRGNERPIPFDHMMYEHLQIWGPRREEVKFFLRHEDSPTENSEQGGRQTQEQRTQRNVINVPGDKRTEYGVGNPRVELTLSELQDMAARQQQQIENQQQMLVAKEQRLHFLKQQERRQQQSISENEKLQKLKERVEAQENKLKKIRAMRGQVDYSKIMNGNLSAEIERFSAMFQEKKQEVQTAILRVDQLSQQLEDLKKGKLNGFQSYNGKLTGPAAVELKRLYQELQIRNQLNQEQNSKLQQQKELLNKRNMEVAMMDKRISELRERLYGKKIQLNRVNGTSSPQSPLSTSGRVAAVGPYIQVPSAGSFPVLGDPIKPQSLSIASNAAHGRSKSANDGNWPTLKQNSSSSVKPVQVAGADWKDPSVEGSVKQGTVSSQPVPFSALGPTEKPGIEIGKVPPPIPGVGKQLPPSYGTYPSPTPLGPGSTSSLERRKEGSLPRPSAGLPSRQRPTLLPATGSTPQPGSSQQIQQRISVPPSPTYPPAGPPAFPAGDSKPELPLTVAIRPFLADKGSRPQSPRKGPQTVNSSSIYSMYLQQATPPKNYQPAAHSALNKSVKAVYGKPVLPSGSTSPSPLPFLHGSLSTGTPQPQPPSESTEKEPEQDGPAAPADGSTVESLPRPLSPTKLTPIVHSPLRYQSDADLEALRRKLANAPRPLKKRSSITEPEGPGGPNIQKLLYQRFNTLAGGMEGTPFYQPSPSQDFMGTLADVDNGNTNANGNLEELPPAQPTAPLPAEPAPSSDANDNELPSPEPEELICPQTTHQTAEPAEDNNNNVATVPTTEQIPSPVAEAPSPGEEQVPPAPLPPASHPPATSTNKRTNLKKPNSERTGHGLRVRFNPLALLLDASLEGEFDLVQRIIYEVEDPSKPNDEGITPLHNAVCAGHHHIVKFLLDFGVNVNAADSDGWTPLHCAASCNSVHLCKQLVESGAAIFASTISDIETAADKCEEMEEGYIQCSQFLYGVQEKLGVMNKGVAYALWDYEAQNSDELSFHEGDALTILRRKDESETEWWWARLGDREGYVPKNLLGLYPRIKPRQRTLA
# [3] = tested on: T2, GST-ASPP2 (693-1128), non-phosphorylated
# T2 sequence: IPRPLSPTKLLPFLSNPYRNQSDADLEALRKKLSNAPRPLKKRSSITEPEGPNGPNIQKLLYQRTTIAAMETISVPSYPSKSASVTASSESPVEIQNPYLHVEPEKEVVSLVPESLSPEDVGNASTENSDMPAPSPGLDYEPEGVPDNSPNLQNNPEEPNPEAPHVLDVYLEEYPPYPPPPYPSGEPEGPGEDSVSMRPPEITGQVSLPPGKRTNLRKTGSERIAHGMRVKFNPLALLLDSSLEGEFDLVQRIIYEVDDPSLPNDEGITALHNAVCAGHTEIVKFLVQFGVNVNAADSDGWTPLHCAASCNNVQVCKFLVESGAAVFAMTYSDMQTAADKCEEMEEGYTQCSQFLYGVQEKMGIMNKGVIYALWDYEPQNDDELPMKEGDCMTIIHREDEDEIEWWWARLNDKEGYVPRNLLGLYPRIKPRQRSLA
# [4] = biological target: full length ASPP2, V5-tagged (transfected) (Homo sapiens (Human)) (UniProt Q13625); test: cell-based or functional assay; remark: listed apart in the source
# [5] = biological target: purified recombinant Ras loaded with GTP; test: in vitro immunoprecipitation with V5 antibody, intensity of the Ras bands (FIG. 23B)
# [6] = biological target: purified recombinant Ras loaded with GTP; test: in vitro immunoprecipitation of purified proteins with V5 antibody, intensity of the ras bands (FIG. 14C-D)
# Ras = test: In vitro immunoprecipitation of GDP/GTP-loaded Ras with ASPP1 fragment; type: binding; conditions: purified recombinant proteins, V5 immunoprecipitation, band intensity
# From the text: FIG. 14 illustrates that purified N-term ASPP1 binds directly in a preferential manner to Ras.GTP. A. Purified ras was loaded with tritium labelled -GDP, -GTP or not loaded as a control. The cpm counts of the tritium are shown. The differences in cpm is due to the fact that GDP and GTP were not tritium-labelled at the same level. B. Relative loading of ras-GDP and ras-GTP, showing the mol of nucleotide bound to ras. Both ras-GDP and ras-GTP were loaded with an equal amount of nucleotide. C. Loaded ras-GDP and ras-GTP with or without purified N-terminus ASPP1 was immunoprecipitated with a V5 antibody against the ASPP1 fragment. The immunoprecipitations were western blotted against ras to see whether there was direct and preferential binding of ras-GDP and ras-GTP to the amino-terminus of ASPP1. D. The intensity of the ras-GDP and ras-GTP bands pulled down by N-term ASPP1 were measured and shown as a graph. N-terminus ASPP1 binds ras-GTP four fold more strongly than it does to ras-GDP;
# FIG. 23. Amino-terminus ASPP1 and ASPP2 preferentially bind activated Ras in vitro and in vivo. (A) Sequence homology between the amino-termini of ASPP1 and ASPP2 and the Ras-association domains (RAD) of RGL2 and AF-6. (B) The Ras protein loaded with either tritium-labelled GDP or GTP, was added to V5-tagged recombinant ASPP1 fragment (1-308) and immunoprecipitated with V5 antibody. As a negative control Ras-GDP and Ras-GTP were immunoprecipitated with V5 antibody in the absence of the ASPP1 fragment. The ASPP1 fragment preferentially bound Ras-GTP to Ras-GDP. The intensity of the bands representing immunoprecipitated Ras was quantified and the values shown as a bar graph in the right panel. […] The ASPP proteins were detected with mAbASPP1.54.1 that is known to cross-react with both ASPP1 and ASPP2. […]
# 2.5 μg of recombinant protein purified from Escherichia coli was incubated in a total volume of 320 μl assay buffer containing 2 μCi [3H] […] An aliquot of each sample had its tritium content measured to check the equal loading of GDP and GTP. […]
# Chain of recombinant MAPK1 (P28482 2-360): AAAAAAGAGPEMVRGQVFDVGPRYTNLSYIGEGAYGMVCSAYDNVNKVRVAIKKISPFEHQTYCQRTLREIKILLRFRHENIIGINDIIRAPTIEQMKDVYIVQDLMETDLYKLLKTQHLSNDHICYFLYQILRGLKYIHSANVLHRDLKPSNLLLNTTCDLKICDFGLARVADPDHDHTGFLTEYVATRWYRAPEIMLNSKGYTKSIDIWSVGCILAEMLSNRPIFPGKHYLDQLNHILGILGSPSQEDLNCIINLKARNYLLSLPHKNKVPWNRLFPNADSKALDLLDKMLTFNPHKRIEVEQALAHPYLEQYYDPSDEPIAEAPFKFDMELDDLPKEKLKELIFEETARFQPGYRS
# Chain of p38SAPK (Q16539 2-360): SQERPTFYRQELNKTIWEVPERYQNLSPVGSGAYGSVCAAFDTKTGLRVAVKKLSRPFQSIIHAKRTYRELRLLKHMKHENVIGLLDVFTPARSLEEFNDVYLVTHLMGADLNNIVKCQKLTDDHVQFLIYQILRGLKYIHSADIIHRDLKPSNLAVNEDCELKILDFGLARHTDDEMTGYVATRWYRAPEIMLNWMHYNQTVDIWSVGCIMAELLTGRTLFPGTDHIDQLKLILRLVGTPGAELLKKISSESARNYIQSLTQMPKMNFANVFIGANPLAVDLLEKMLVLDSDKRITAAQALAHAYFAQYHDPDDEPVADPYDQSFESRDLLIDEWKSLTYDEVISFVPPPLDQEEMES
molecule,measurement,setting,value
"oncogenic K-RasV12, haemagglutinin-tagged (from UniProt P79800 1-185)","transactivation function of p53 (bax-luciferase reporter, Saos2 cells)",[1],2.5 fold
same,"transactivation function of p53 (bax-luciferase reporter, Saos2 cells)",[2],2.5 fold
p38SAPK,in vitro phosphorylation (P32 incorporation),[3],"MAPK1, PKA, p38SAPK and p90rsk were all found to be able to phosphorylate ASPP2"
p90rsk,in vitro phosphorylation (P32 incorporation),[3],"MAPK1, PKA, p38SAPK and p90rsk were all found to be able to phosphorylate ASPP2"
PKA,in vitro phosphorylation (P32 incorporation),[3],"MAPK1, PKA, p38SAPK and p90rsk were all found to be able to phosphorylate ASPP2"
"oncogenic H-RasV12, haemagglutinin-tagged (from UniProt P01112 1-186)","transactivation function of p53 (bax-luciferase reporter, Saos2 cells)",[4],3 fold
same,"transactivation function of p53 (bax-luciferase reporter, Saos2 cells)",[1],2.5 fold
same,"transactivation function of p53 (bax-luciferase reporter, Saos2 cells)",[2],2.5 fold
recombinant MAPK1,in vitro phosphorylation (P32 incorporation),[3],"MAPK1, PKA, p38SAPK and p90rsk were all found to be able to phosphorylate ASPP2"
same,in vitro phosphorylation assay with 32P-labelled ATP,[3],"When compared to p38 SAPK, MAPK1 was clearly able to phosphorylate the ASPP2 fragment in vitro"
"V5-tagged recombinant ASPP1 fragment (1-308) (protein, not shown: small tags and cut ends) MMPMILTVFLSNNEQILTEVPITPETTCRDVVEFCKEPGEGSCHLAEVWRGNERPIPFDHMMYEHLQIWGPRREEVKFFLRHEDSPTENSEQGGRQTQEQRTQRNVINVPGDKRTEYGVGNPRVELTLSELQDMAARQQQQIENQQQMLVAKEQRLHFLKQQERRQQQSISENEKLQKLKERVEAQENKLKKIRAMRGQVDYSKIMNGNLSAEIERFSAMFQEKKQEVQTAILRVDQLSQQLEDLKKGKLNGFQSYNGKLTGPAAVELKRLYQELQIRNQLNQEQNSKLQQQKELLNKRNMEVAMMDK",fold affinity for Ras-GTP over Ras-GDP,[5],4 fold
same,fold binding to ras-GTP over ras-GDP,[6],4 fold
"ASPP1 fragment (1-308): V5-tagged recombinant ASPP1 fragment (1-308) containing the Ras-association domain (protein, left off: small tags and cut ends, V5-tagged recombinant ASPP1 fragment (1-308) containing the Ras-association domain) MMPMILTVFLSNNEQILTEVPITPETTCRDVVEFCKEPGEGSCHLAEVWRGNERPIPFDHMMYEHLQIWGPRREEVKFFLRHEDSPTENSEQGGRQTQEQRTQRNVINVPGDKRTEYGVGNPRVELTLSELQDMAARQQQQIENQQQMLVAKEQRLHFLKQQERRQQQSISENEKLQKLKERVEAQENKLKKIRAMRGQVDYSKIMNGNLSAEIERFSAMFQEKKQEVQTAILRVDQLSQQLEDLKKGKLNGFQSYNGKLTGPAAVELKRLYQELQIRNQLNQEQNSKLQQQKELLNKRNMEVAMMDK",binding of Ras-GTP relative to Ras-GDP,Ras,4 fold
same,binding of Ras-GTP relative to Ras-GDP,Ras; listed as N-terminus ASPP1,four fold
same,binding of Ras-GTP relative to Ras-GDP,Ras; listed as N-terminus of ASPP1,four-fold

# Reference: patent US20070225240A1, “Screening Assay and Treatment” (priority 2003, published 2007)
